Test results published in patent publication US20220412975.

Columns and labels:
[1] = tested on: (HiLyteFluor-488)-DELSSMVLELRGLRT-K(QXL520)-E-NH2
[2] = tested on: COMP1 candidate peptide, (Donor) GMQQSVRTGLPS (K-Quencher)
[3] = tested on: COMP2 candidate peptide, (Donor) SPGFRC(Acm)EAC(Acm)PPGYS (K-Quencher)
[4] = tested on: TSP1-1 substrate, (HiLyteFluor-488)-DELSSMVLELRGLRT-K(QXL520)-NH2
[5] = tested on: TSP1-2 substrate, (HiLyteFluor-488)-SSMVLELRGLRTIVT-K(QXL520)-NH2
[6] = tested on: TSP1-3 substrate, (HiLyteFluor-488)-KVTEENKELANELRR-K(QXL520)-NH2
[7] = tested on: TSP1-4 substrate, (HiLyteFluor-488)-EENKELANELRRPPL-K(QXL520)-NH2
[8] = tested on: TSP1-5 substrate, (HiLyteFluor-488)-SSMVLELRGLRT-K(QXL520)-NH2

Sequence of rPro-hCD (Rat 1-217/Human 237-537)-TEV-2Strep-6His (chain, as listed by the source): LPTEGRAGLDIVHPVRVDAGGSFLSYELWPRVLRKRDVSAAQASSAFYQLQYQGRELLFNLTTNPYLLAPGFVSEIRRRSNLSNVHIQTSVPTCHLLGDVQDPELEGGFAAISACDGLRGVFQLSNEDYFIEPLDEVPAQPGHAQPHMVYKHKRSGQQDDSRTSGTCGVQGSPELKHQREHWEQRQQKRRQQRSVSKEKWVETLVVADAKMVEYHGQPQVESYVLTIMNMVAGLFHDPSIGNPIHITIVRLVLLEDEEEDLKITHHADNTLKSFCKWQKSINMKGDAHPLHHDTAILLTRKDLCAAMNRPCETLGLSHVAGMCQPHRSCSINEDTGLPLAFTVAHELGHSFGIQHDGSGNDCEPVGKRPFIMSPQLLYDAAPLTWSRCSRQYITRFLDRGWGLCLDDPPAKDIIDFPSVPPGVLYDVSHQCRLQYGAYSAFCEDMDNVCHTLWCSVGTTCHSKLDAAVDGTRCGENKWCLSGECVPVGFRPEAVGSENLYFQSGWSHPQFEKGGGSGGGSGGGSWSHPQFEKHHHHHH
Sequence of rPro-hCD-FM2 (Rat 1-217/Human 237-537 FM2 (Q216K))-TEV-2Strep-6His (chain, as listed by the source Q216K): as the sequence (chain, as listed by the source) above, with Q192K counted along it

Substance | FRET peptide cleavage (increase of fluorescence intensity) [1] | FRET peptide cleavage (Relative Fluorescence Units over time) [2] | kcat [2] [s⁻¹] | FRET peptide cleavage (Relative Fluorescence Units over time) [3] | kcat [3] [s⁻¹] | FRET peptide cleavage (Relative Fluorescence Units over time) [4] | kcat [4] [s⁻¹] | FRET peptide cleavage (Relative Fluorescence Units over time) [5] | kcat [5] [s⁻¹] | FRET peptide cleavage (Relative Fluorescence Units over time) [6] | kcat [6] [s⁻¹] | FRET peptide cleavage (Relative Fluorescence Units over time) [7] | kcat [7] [s⁻¹] | FRET peptide cleavage (Relative Fluorescence Units over time) [8] | kcat [8] [s⁻¹]
rPro-hCD (Rat 1-217/Human 237-537)-TEV-2Strep-6His | It was surprisingly found that the same substrate could be used for the paralogs ADAMTS-7 and ADAMTS-12 | No activity was observed with COMP candidate peptides COMP1 | 1.22e-05 | No activity was observed with COMP candidate peptides COMP1 ... or COMP2 | 6.33e-06 | demonstrated the greatest specificity for the TSP1 S1 | 0.00035 | also cleaved the overlapping TSP1 S2 substrate | 5.33e-05 | No significant activity was detected at the defined ADAMTS1 cleavage site E311⬇L312 from TSP1 S3 | 2e-05 | No significant activity was detected at the defined ADAMTS1 cleavage site E311⬇L312 from TSP1 S3 ... or TSP1 S4 | 3.33e-05 | Activity was observed for the S5 substrate with ADAMTS-7 human catalytic domain constructs compared to buffer alone, however the removal of the amino DEL sequence greatly reduced the signal for activity compared to the 51 substrate | 3.33e-05
rPro-hCD-FM2 (Rat 1-217/Human 237-537 FM2 (Q216K))-TEV-2Strep-6His | It was surprisingly found that the same substrate could be used for the paralogs ADAMTS-7 and ADAMTS-12 | No activity was observed with COMP candidate peptides COMP1 | 1.27e-05 | No activity was observed with COMP candidate peptides COMP1 ... or COMP2 | 6.5e-06 | demonstrated the greatest specificity for the TSP1 S1 | 0.0004 | also cleaved the overlapping TSP1 S2 substrate | 4.83e-05 | No significant activity was detected at the defined ADAMTS1 cleavage site E311⬇L312 from TSP1 S3 | 2e-05 | No significant activity was detected at the defined ADAMTS1 cleavage site E311⬇L312 from TSP1 S3 ... or TSP1 S4 | 3.5e-05 | Activity was observed for the S5 substrate with ADAMTS-7 human catalytic domain constructs compared to buffer alone, however the removal of the amino DEL sequence greatly reduced the signal for activity compared to the 51 substrate | 3.5e-05
